One series concerns the target CYP3A4 (Homo sapiens, UniProt P08684). Nature of the series: biochemical.
Substrate in the series “purified protein”: O=C(CCc1ccc(O)cc1)c1c(O)cc(O)cc1O
Nature of the series: purified protein. As to conditions: heme.

The term IC50 denotes the concentration that gives 50% inhibition. Read a high IC50 as weaker potency. Broadly, the Km is the concentration of substrate that gives half-maximal velocity. The term kcat denotes the maximal rate divided by the concentration of active sites. As usually defined, the kcat/Km is the second-order rate constant that governs catalysis at low substrate concentration.

Sequence of CYP3A4 (P08684 2-503): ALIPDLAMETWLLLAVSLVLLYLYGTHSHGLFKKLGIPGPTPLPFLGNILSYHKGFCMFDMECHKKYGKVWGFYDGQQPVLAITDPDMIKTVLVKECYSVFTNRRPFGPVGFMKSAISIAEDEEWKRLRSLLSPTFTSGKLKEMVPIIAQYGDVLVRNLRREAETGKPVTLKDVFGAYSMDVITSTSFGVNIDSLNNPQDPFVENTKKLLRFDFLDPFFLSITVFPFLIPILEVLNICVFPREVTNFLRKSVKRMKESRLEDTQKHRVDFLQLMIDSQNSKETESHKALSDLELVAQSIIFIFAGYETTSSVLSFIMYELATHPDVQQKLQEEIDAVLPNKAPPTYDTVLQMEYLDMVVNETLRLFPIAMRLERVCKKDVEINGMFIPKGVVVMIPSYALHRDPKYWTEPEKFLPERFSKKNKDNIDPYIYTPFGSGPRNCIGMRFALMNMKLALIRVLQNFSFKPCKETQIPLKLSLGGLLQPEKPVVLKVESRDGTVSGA
Sequence of CYP3A4 (P00388 2-678 partner): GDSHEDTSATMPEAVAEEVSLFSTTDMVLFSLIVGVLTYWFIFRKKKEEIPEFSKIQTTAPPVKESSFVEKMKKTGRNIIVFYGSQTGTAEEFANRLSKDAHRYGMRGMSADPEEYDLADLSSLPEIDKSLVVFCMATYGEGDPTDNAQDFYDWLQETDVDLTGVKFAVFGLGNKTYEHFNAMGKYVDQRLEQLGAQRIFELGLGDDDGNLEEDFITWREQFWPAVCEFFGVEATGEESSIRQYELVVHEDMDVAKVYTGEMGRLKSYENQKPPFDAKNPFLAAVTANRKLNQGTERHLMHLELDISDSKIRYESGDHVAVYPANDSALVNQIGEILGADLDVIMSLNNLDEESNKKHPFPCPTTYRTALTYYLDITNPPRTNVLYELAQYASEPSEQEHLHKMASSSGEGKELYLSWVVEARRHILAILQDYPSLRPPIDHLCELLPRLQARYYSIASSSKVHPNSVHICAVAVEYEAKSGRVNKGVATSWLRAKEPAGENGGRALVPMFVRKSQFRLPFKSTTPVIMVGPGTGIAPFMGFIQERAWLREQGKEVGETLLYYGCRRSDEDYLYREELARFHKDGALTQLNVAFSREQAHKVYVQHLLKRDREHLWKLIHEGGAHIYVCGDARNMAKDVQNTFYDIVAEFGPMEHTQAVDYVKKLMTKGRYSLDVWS

`O=C(CCc1ccc(O)cc1)c1c(O)cc(O)cc1O` [phloretin, 3-(4-hydroxyphenyl)-1-(2,4,6-trihydroxyphenyl)propan-1-one] showed an IC50 at CYP3A4 of 13 µM.

B1: CYP2C19 (Homo sapiens) (protein)
chain: MDPFVVLVLCLSCLLLLSIWRQSSGRGKLPPGPTPLPVIGNILQIDIKDVSKSLTNLSKIYGPVFTLYFGLERMVVLHGYEVVKEALIDLGEEFSGRGHFPLAERANRGFGIVFSNGKRWKEIRRFSLMTLRNFGMGKRSIEDRVQEEARCLVEELRKTKASPCDPTFILGCAPCNVICSIIFQKRFDYKDQQFLNLMEKLNENIRIVSTPWIQICNNFPTIIDYFPGTHNKLLKNLAFMESDILEKVKEHQESMDINNPRDFIDCFLIKMEKEKQNQQSEFTIENLVITAADLLGAGTETTSTTLRYALLLLLKHPEVTAKVQEEIERVIGRNRSPCMQDRGHMPYTDAVVHEVQRYIDLIPTSLPHAVTCDVKFRNYLIPKGTTILTSLTSVLHDNKEFPNPEMFDPRHFLDEGGNFKKSNYFMPFSAGKRICVGEGLARMELFLFLTFILQNFNLKSLIDPKDLDTTPVVNGFASVPPFYQLCFIPV
Consider B1, for which, in “purified protein”, the Michaelis-Menten constant (Km) was 208 ± 50 µM, the catalytic constant (kcat) is 0.0967 s⁻¹ and the kcat/Km is 467 M⁻¹ s⁻¹.

Values taken from publication PMC7690628 (Pharmaceuticals, 2020).
